Measurements published in the supplement of paper PMC12042874.
± gives the uncertainty stated by the source.

Test: amyloid nucleation score (Sup35N fusion, yeast selection) (log enrichment); library NNK3; higher = more nucleation; inactive = no reads after selection
Method in brief: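 After 24 hours of induction with 100 μM copper sulfate, psi-negative yeast expressing peptides of 20 random codons fused to Sup35N were grown for 7 days at 30°C on medium lacking adenine and uracil. Input and output plasmid inserts were sequenced with Illumina, and sequences with under 100 input reads were discarded. Scores for nucleation are the DiMSum log enrichment of output over input reads, centred on the mode score of non-aggregating sequences.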

Substance	amyloid nucleation score
FYDHRIRSCGLVFIKECVTP	inactive
FYELEIV	inactive
FYLALIYNICFADRKLVGVC	inactive
FYTMELISVQRI	inactive
GAFCSND	inactive
GAGRNFGTVCL	inactive
GASKHT	0.319 ± 0.33
GAYSGLCSILGSFLGLSAVK	inactive
GCFNSCILYVLRLSIASVVS	inactive
GCIDEDCGVLIIKFYNIRRY	0.118 ± 0.59
GCIVFCCRTLVNFDVVVYWF	inactive
GCNACVTSTCIRVVCGNLKC	0.715 ± 0.3
GCNLTYNVIGFGLYMKFRDE	1.85 ± 0.069
GCSGVVVGCWRDPRICWLWW	inactive
GCSLTWAVAEALTILVNAYT	inactive
GCVCQLR	inactive
GCWNVMRRCVLLILPESYLV	inactive
GDCCHMADKTGGGTNRQIYH	inactive
GDHYGVEYSHPL	inactive
GDMVCFVLMKALV	inactive
GDPNPHYL	inactive
GDRLFLKASG	inactive
GDRVSEVTDCVFQAISIRCA	inactive
GDYDTMAEVKPFLDEKC	inactive

Substance	amyloid nucleation score
GEFYCVVLRQYVWAQDDAG	inactive
GEISWDC	0.283 ± 0.3
GELKFLVLNRFE	inactive
GENWDCTCVADQCRNWTCYL	0.282 ± 0.81
GERFAVTSVSDHVTDKKTLS	1.77 ± 0.093
GESYDCLLLHSRVWLSVVMG	inactive
GEWLCVFFSWPSGSPIVPWE	inactive
GEYMRLYVSVTGYTVYYSVR	0.882 ± 0.2
GFAGMLYDLLPFGNWSLPSH	-0.127 ± 0.75
GFDLEVNTGNVVGFEDSAGQ	inactive
GFEAPWA	inactive
GFEPRRYP	-0.646 ± 1.3
GFEVNKACQLIEYPLFFTRL	inactive
GFGHGLKFRPRDRWGSIYPY	inactive
GFIDVPG	inactive
GFIHWRGAIWVSL	-0.65 ± 1.9
GFKVVSSLDFSCG	0.55 ± 0.31
GFKVVYKIWLPASRSACDPW	1.31 ± 0.13
GFLCDGGN	0.149 ± 0.51
GFLPA	inactive
GFLVNSISFSKSCYEHTIVW	inactive
GFRYLRTDNYMPCRGESVGW	inactive
GFSDLCQHYFQYLVK	inactive
GFSLFYYL	inactive

Substance	amyloid nucleation score
GFTVG	inactive
GFWINVMISKTLRYGSKAWC	inactive
GFYTVFCIMQSAEGLDGTVW	1.26 ± 0.12
GFYVRRGCLWGGYNHVFAIF	inactive
GGCLGICTAANLRSGNRITR	inactive
GGLLWAKCVMLILYYVPMGL	inactive
GHKVVL	inactive
GHLESVFRSVDTLVSYSS	0.138 ± 0.55
GHNRYIDLSIEIRAL	-0.61 ± 1.1
GHVIMGLSGYGSLASLFKTG	inactive
GIAIDREKVVPIRGYLWSVT	inactive
GICHAACCCANVMYCSWHVR	1 ± 0.16
GICIGTDKTFYCLGMSFF	inactive
GICKGNMYRFSMSYDSNLIM	inactive
GIFLSEWWLGSVSCVRTNVP	inactive
GILFYTHGRKDASD	-0.348 ± 0.5
GILIFTGYEDIFSCESDGSW	inactive
GISFSFRFLNENFHCVFRRA	inactive
GISTGISWQLCGHSGDWYWW	-0.658 ± 1.9
GIVNYRPAYP	inactive
GKDVSVGEVFKPLVSVRRVN	inactive
GKEKCTMNSHATLRVDVEMT	inactive
GKKNYLF	inactive
GKLLP	inactive

Substance	amyloid nucleation score
GKLTWIYIGIARPHEKMWLT	inactive
GKNKQLS	inactive
GKVSAFCMHGGYTCDLSVEL	inactive
GKWGWLIASWREFTS	inactive
GLALNWLCG	0.026 ± 0.43
GLDLRTCGCYHSIP	inactive
GLEGLLVLWFQCSFTVAALR	inactive
GLFLRMLLRADPAKSWENRI	0.238 ± 0.27
GLGSFLRQRRACPSGGTQ	inactive
GLHIRFQNYLRQGQ	1.22 ± 0.17
GLKCGFRPSSVINSYWSSQL	inactive
GLKKWLFD	inactive
GLKWWLISASSVNFICVRYT	0.104 ± 0.23
GLLAFKVLISKASVDFYNVS	-0.134 ± 0.4
GLLCFK	inactive
GLLNRIIVLYTLLNSDIRES	inactive
GLLSHLDHLWVCGGWGSRKR	inactive
GLNGIDLKLSVAGFVVFLGR	1.48 ± 0.14
GLPFLSTMELLLLLMSKTMR	inactive
GLRGVDWVDREQLPGTVQGH	-0.589 ± 1.9
GLRKMRGLTQ	inactive
GLRTFIG	inactive
GLSMLGGLNDSRTCSLVSNV	inactive
GLSNRTFSMISSLVRDTKRS	inactive

Substance	amyloid nucleation score
GLTWFKSIKVYVECLFRLSN	inactive
GLWRLSCKSYAWHF	inactive
GLYSLYLFGTLYRQAQRGCE	0.52 ± 0.21
GMADKVDTCLWLMFY	inactive
GMDSIWHFDCNLS	0.094 ± 0.81
GMGCTMLNYLMLWESFDTRP	0.586 ± 0.17
GMLGTGYVYPCWL	inactive
GMNYNKMRTVLSRAPPRVRS	inactive
GMRCEYMILTFGLSWKLLLI	inactive
GMRFCVNVVCMRSLPSCAMK	1.43 ± 0.095
GMTDNVPLGVKVKREMCQFA	inactive
GNASMLWDNMSVVFLRGTLY	1.53 ± 0.074
GNGIFGLSPR	-1.04 ± 1.4
GNISIWGFRNSWALDLIAGY	inactive
GNLNGILFRISRQKEM	inactive
GNMKQWSIPPHIWTGQPPLM	inactive
GNYIITLY	inactive
GPDWYWNLNV	inactive
GPGQLYLLDM	inactive
GPLESIFNQFAVIATVPRVW	inactive
GPTNGFMSLNNWYQPLDQPV	inactive
GPTQIGNLMVTHKSQCSWFN	inactive
GPVLGSCIRRH	inactive
GQCVLCMVNVLYLWAKYTNR	inactive
